Experimental data published in patent US20110039770A1 (PHARMAGAP, published 2011).
Where no end group is shown, it is not given here.

B1: PRE 1 (peptide)
peptide: RRKKGGKDFVVKR
notes: also called peptide PRE 1; peptide recognition element 1

What was measured:
[1] = target: T1, PKC-α (purified isoform) (Homo sapiens (Human), UniProt P17252 2-672); assay: competitive ELISA, coated purified PKC-α, vs anti-PKC α (SC-208); PRE 50 µM
T1 construct: also called purified PKC-alpha; commercially purified PKC-alpha
Experimental: (§1) Greiner 96 well ELISA plates were coated with the appropriate PKC isoform diluted in PBSN (PBS with Calcium/Magnesium+0.05% Sodium azide w/w). 50 μL/well at 250 ng/mL was used. Control wells contained PBSN only. Plates were incubated overnight at 4° C.
(§2) The plates were washed 3 times with 200 μL of dH₂O per well, then 100 μL of blocking solution was added per well and the plate incubated for 1 h at 37° C. The washing steps with dH₂O were repeated and 50 μL of the appropriate PRE solution (PRE stock solution [20 mM in DMSO] diluted in PBSN) was added and the plate incubated for 1 h at room temperature.
(§3) 50 μL of 1:1000 dilution of Alkaline Phosphatase (AP) conjugated antibody (anti-rabbit for all except zeta, which was anti-goat) was then added and the plate incubated for 1 h at room temperature. Washing with dH₂O was then repeated. Finally, 100 μL of pNPP solution in pNPP buffer (2 mM MgCl₂, 100 mM Sodium bicarbonate in water, pH 9.8) was added to all wells and incubated for 8 minutes for α, βI, βII ε, and ζ, or for 15-20 mins for δ (until sufficient coloration is observed). The reaction was stopped by addition of Stop solution (2N NaOH) and the absorbance at 405 nm was read on a Galaxy Plate reader.

[2] = target: T2, PKC-δ (purified isoform); assay: competitive ELISA, coated purified PKC-δ, vs anti-PKC δ (SC-213); PRE 50 µM
T2 construct: also called PKC-delta
Experimental: as §1, §2, §3

[3] = target: T1, PKC-α (purified isoform); assay: competitive ELISA, coated purified PKC-α, vs anti-PKC α (SC-208); PRE 100 µM
Experimental: as §1, §2, §3

[4] = target: T1, PKC-α (purified isoform); assay: competitive ELISA, coated purified PKC-α, vs anti-PKC α (SC-208); PRE 200 µM
Experimental: as §1, §2, §3

[5] = target: T2, PKC-δ (purified isoform); assay: competitive ELISA, coated purified PKC-δ, vs anti-PKC δ (SC-213); PRE 100 µM
Experimental: as §1, §2, §3

[6] = target: T2, PKC-δ (purified isoform); assay: competitive ELISA, coated purified PKC-δ, vs anti-PKC δ (SC-213); PRE 200 µM
Experimental: as §1, §2, §3

[7] = target: T3, PKC-βI (purified isoform) (Homo sapiens (Human), UniProt P05771 2-671); assay: competitive ELISA, coated purified PKC-βI, vs anti-PKC βI (SC-209); PRE 50 µM
T3 construct: also called PKC-beta I; PKC beta 1
Experimental: as §1, §2, §3

[8] = target: T3, PKC-βI (purified isoform); assay: competitive ELISA, coated purified PKC-βI, vs anti-PKC βI (SC-209); PRE 100 µM
Experimental: as §1, §2, §3

[9] = target: T3, PKC-βI (purified isoform); assay: competitive ELISA, coated purified PKC-βI, vs anti-PKC βI (SC-209); PRE 200 µM
Experimental: as §1, §2, §3

[10] = target: T4, PKC-βII (purified isoform) (Homo sapiens (Human), UniProt P05771 2-621); assay: competitive ELISA, coated purified PKC-βII, vs anti-PKC βII (SC-210); PRE 50 µM
T4 construct: also called PKC-beta II; PKC beta 2
Experimental: as §1, §2, §3

[11] = target: T4, PKC-βII (purified isoform); assay: competitive ELISA, coated purified PKC-βII, vs anti-PKC βII (SC-210); PRE 100 µM
Experimental: as §1, §2, §3

[12] = target: T4, PKC-βII (purified isoform); assay: competitive ELISA, coated purified PKC-βII, vs anti-PKC βII (SC-210); PRE 200 µM
Experimental: as §1, §2, §3

[13] = target: T5, PKC-ε (endogenous, IMR-32 lysate) (human, UniProt Q02156 1-737); assay: WB competition Protocol B, IMR-32 extract, vs anti-PKC-ε Ab; PKC-ε Band 1; 20 µg peptide
T5 construct: Band 1 and Band 2 (alternate splicing variants, not identified further) are kept under one molecule; the band is named in the assay field of each row; also called PKC-epsilon; PKC-ε Band 1
T5 sequence (looked up): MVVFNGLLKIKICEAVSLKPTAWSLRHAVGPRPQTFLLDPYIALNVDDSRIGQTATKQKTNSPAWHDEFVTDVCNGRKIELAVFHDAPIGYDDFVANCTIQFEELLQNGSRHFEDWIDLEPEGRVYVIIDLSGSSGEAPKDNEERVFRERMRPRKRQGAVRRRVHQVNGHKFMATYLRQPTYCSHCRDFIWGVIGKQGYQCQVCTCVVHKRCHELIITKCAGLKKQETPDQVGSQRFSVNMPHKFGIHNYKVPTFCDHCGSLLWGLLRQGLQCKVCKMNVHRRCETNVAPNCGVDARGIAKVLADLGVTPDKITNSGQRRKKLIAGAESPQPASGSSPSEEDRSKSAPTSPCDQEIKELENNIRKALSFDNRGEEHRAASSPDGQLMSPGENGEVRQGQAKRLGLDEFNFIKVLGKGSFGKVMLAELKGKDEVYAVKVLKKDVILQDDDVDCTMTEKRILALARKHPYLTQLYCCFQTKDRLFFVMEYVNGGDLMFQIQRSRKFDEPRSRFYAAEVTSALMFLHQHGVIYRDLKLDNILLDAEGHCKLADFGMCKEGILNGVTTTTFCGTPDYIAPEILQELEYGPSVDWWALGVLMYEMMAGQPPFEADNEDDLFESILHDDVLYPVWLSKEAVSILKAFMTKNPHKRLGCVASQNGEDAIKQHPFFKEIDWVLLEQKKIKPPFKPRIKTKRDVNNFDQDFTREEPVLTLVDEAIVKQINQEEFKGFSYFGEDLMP
Experimental: (§4) The ability of the peptides PRE 2 and PRE 3 (see Table 4) to interfere with the binding of a PKC-α-specific polyclonal antibody (Santa Cruz Biotechnology, Inc.) to PKC-α was determined using a modified version of the protocol outlined above in which the test peptide was added directly to the cell extract prior to electrophoresis at a concentration of either 5× or 15× the concentration of the protein applied to each well of the gel for the Western blots (20 μg).
(§5) Peptides PRE 2, PRE 3 and PRE 4 (see Table 4) were tested for their ability to interfere with the binding of isoform-specific polyclonal antibodies (Santa Cruz Biotechnology, Inc.) to […] using the general protocol described in Example 3. Two bands, representing alternate splicing variants of PKC-ε, were identified on the Western blot using this anti-PKC-ε antibody.

[14] = target: T5, PKC-ε (endogenous, IMR-32 lysate); assay: WB competition Protocol B, IMR-32 extract, vs anti-PKC-ε Ab; PKC-ε Band 1; 50 µg peptide
Experimental: as §4, §5

[15] = target: T5, PKC-ε (endogenous, IMR-32 lysate); assay: WB competition Protocol B, IMR-32 extract, vs anti-PKC-ε Ab; PKC-ε Band 2; 20 µg peptide
Experimental: as §4, §5

[16] = target: T5, PKC-ε (endogenous, IMR-32 lysate); assay: WB competition Protocol B, IMR-32 extract, vs anti-PKC-ε Ab; PKC-ε Band 2; 50 µg peptide
Experimental: as §4, §5

[17] = target: T5, PKC-ε (endogenous, IMR-32 lysate); assay: WB competition Protocol B, IMR-32 extract, vs anti-PKC-ε Ab; PKC-ε Band 1; 100 µg peptide
Experimental: as §4, §5

[18] = target: T5, PKC-ε (endogenous, IMR-32 lysate); assay: WB competition Protocol B, IMR-32 extract, vs anti-PKC-ε Ab; PKC-ε Band 2; 100 µg peptide
Experimental: as §4, §5

T4 sequence (P05771 other isoform, or with tags, fused parts or gaps limits assumed): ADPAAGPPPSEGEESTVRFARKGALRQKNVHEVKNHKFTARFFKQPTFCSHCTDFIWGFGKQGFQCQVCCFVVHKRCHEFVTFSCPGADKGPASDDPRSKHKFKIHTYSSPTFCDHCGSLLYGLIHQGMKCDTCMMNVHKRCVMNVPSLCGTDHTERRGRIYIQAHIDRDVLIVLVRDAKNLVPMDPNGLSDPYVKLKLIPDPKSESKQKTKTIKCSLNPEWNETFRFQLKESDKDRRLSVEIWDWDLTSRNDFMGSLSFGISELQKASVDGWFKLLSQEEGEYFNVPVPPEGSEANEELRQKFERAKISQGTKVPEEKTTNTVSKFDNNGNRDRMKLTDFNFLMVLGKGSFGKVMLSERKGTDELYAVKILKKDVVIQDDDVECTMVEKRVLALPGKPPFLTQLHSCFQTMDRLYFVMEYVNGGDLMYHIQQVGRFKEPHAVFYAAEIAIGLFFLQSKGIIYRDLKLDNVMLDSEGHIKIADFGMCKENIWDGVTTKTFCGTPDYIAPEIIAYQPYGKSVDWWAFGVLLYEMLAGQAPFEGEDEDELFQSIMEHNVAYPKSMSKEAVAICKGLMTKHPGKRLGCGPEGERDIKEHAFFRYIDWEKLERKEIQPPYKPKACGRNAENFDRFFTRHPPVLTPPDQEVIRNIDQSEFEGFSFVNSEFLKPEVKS
T3 sequence (P05771 2-671 limits assumed): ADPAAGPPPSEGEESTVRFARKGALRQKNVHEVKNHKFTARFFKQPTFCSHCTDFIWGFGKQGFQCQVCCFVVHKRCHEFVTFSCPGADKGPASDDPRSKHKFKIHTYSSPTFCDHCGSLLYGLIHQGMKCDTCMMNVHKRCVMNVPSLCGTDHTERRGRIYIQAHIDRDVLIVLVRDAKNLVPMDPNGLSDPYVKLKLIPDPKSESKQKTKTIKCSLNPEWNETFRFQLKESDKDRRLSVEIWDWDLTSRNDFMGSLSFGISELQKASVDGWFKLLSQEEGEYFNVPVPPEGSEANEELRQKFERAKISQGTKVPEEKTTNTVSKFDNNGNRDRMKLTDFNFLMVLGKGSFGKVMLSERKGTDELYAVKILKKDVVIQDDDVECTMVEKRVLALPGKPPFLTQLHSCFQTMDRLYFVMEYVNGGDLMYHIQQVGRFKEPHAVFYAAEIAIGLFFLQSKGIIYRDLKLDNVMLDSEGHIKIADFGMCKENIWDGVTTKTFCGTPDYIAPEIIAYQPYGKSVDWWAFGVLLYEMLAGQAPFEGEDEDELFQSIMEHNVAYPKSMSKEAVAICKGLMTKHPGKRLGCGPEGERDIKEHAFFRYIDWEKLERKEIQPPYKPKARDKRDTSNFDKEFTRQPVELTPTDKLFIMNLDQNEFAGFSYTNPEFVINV
T2 sequence (Q05655 whole entry, stated change not applied, canonical isoform): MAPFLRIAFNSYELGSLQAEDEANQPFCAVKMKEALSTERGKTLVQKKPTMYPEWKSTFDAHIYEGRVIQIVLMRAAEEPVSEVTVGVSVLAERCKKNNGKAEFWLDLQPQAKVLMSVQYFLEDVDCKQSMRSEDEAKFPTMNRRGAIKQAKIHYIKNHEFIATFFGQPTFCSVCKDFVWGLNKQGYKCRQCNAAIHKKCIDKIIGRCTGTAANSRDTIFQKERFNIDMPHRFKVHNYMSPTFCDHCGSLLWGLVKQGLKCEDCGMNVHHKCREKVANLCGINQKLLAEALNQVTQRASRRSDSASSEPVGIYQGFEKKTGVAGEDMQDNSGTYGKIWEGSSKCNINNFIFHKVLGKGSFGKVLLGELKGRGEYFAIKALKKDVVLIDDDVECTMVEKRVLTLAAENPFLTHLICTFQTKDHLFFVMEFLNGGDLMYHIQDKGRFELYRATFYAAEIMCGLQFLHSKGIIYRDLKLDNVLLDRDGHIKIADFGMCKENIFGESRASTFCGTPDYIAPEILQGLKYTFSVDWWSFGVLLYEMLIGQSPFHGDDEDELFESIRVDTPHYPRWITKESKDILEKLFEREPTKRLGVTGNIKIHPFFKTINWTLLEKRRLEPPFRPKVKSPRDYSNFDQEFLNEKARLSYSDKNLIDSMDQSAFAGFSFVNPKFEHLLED

Binder	relative binding capacity (100-%n, DMSO subtracted) [1] [%]	relative binding capacity (100-%n, DMSO subtracted) [2] [%]	relative binding capacity (100-%n, DMSO subtracted) [3] [%]	relative binding capacity (100-%n, DMSO subtracted) [4] [%]	relative binding capacity (100-%n, DMSO subtracted) [5] [%]	relative binding capacity (100-%n, DMSO subtracted) [6] [%]	relative binding capacity (100-%n, DMSO subtracted) [7] [%]	relative binding capacity (100-%n, DMSO subtracted) [8] [%]	relative binding capacity (100-%n, DMSO subtracted) [9] [%]	relative binding capacity (100-%n, DMSO subtracted) [10] [%]	relative binding capacity (100-%n, DMSO subtracted) [11] [%]	relative binding capacity (100-%n, DMSO subtracted) [12] [%]	further results
Ac-KDANQLIGISI-NH2 (also called peptide PRE 6) [PRE 6]	0	17.5	0	0	13.2	14	0	7.93	6.14	0.08	0	0	–
B1	0.69	35.7	0	2.1	45.2	49.4	19.8	13.9	13.4	0	0	0	–
Ac-RDAQNLIGISI-NH2 (also called peptide PRE 11) [PRE 11]	0	34.1	5.96	13.3	21.5	18.7	9.86	14.2	12.5	7.14	11	6.4	–
ILEDKGGDAQNLIGISI (also called peptide PRE 8) [PRE 8]	0	6.96	0	0	3.38	6.68	–	–	–	1.11	0	0	–
Ac-ISIGILQNADK-NH2 (also called peptide PRE 7) [PRE 7]	0	3.06	6.72	6.59	0	0	–	–	–	5.42	11.1	2.59	–
KDAQNLIGISL-NH2 (also called peptide PRE 2) [PRE 2]	–	–	–	–	–	–	–	–	–	–	–	–	Band Intensity [13]: 323; Inhibition (%) [13]: 23.4%; Relative Intensity (%) [13]: 76.6%; Band Intensity [14]: 0; Inhibition (%) [14]: 100%; Relative Intensity (%) [14]: 0%; Band Intensity [15]: 160; Inhibition (%) [15]: 38.6%; Relative Intensity (%) [15]: 61.4%; Band Intensity [16]: 0; Inhibition (%) [16]: 100%; Relative Intensity (%) [16]: 0%; Band Intensity [17]: 0; Inhibition (%) [17]: 100%; Relative Intensity (%) [17]: 0%; Band Intensity [18]: 0; Inhibition (%) [18]: 100%; Relative Intensity (%) [18]: 0%
Ac-ISIGILNQADK-NH2 (also called peptide PRE 10) [PRE 10]	0	0	0	0	0	9.47	3.77	4.35	0	0	0	0	–
